The target in test [1] is human α4β7 integrin on cells (human) (UniProt P13612). As to the kind of experiment: FACS, human whole blood, 1 mM MnCl2; Basophils. (In general: Flow cytometry measures light scatter and fluorescence of single cells or particles in a stream.)
Test [2] has the same target. As to the kind of experiment: FACS, human whole blood, 1 mM MnCl2; Neutrophils.
For test [3] the target is unchanged. As to the kind of experiment: FACS, human whole blood, 1 mM MnCl2; CD4 naïve T cells.
Test [4] shares this target. As to the kind of experiment: FACS, human whole blood, 1 mM MnCl2; Eosinophils.
Test [5] shares this target. As to the kind of experiment: FACS, human whole blood, 1 mM MnCl2; CD8 naïve T cells.
The target is the same in test [6]. In words: FACS, human whole blood, 1 mM MnCl2; NK cells CD16+ 56+.
For test [7] the target is unchanged. In words: FACS, human whole blood, 1 mM MnCl2; CD19+ B cells.
Test [8] shares this target. As to the kind of experiment: FACS, human whole blood, 1 mM MnCl2; Monocytes.
Test [9] deals with rh integrin α4β7 (R&D Systems #5397-A30) (human) (UniProt P13612). As to the kind of experiment: SPR, biotin antibody on streptavidin chip, soluble α4β7. (SPR reads the build-up and loss of mass on a sensor chip optically.)
Test [10] has as its target human α4β7 integrin on cells (human) (UniProt P13612). As to the kind of experiment: FACS, human whole blood, 1 mM MnCl2; CD4 memory T cells.
For test [11] the target is unchanged. As to the kind of experiment: FACS, human whole blood, 1 mM MnCl2; CD8 memory T cells.
For test [12], the target named is α4β1 (R&D Systems #5668-A4) (UniProt P13612). As to the kind of experiment: competition ELISA vs VCAM-1.
The target in test [13] is rh integrin α4β7 (R&D Systems #5397-A30) (human) (UniProt P13612). As to the kind of experiment: competition ELISA vs MAdCAM-1. For orientation: In an ELISA, binding on a coated surface is turned into a signal by an enzyme label.
Test [14] addresses human α4β7 integrin on cells (human) (UniProt P13612). In words: PBMC memory T cell adhesion.
Test [15] shares this target. In words: RPMI8866 adhesion to MAdCAM-1.
For test [16], the target named is mouse α4β7 integrin on TK1 cells (mouse) (UniProt Q00651). As to the kind of experiment: TK1 adhesion to MAdCAM-1.
Test [17] addresses T1, rh integrin α4β7 (R&D Systems #5397-A30) (human, UniProt P13612 34-970; P26010 20-723).
T1 construct: Bought recombinant heterodimer, coated on a nickel plate; also called immobilized α4β7; soluble α4β7 integrin
In words: SPR, biotin peptide on streptavidin chip, soluble α4β7.

In test [18] the target is T1, rh integrin α4β7 (R&D Systems #5397-A30). In words: competition ELISA vs MAdCAM-1.

As usually defined, the Kd is the constant that tells how readily two partners part at equilibrium. Higher therefore signals lower affinity. Usually koff stands for the rate constant with which the complex falls apart. The low end stands for a long-lived complex, the high end for a short-lived complex. In general, kon refers to the rate constant with which the complex forms. A higher kon goes with faster complex formation. A word on the IC50: it is the concentration needed to halve the response being measured.

Where “and” joins values, the source holds several entries; their conditions need not be identical. Identical values can stand only once. Bridge positions count the residues as written; N and C are the ends. Square brackets hold non-standard residues; d marks the D form. Ends that are not written are not given here. Phe(4-tBu) = CC(C)(C)c1ccc(C[C@H](N)C(=O)O)cc1; 1Nal = N[C@@H](Cc1cccc2ccccc12)C(=O)O; 2Nal = N[C@@H](Cc1ccc2ccccc2c1)C(=O)O; NMeR = CN[C@@H](CCCNC(=N)N)C(=O)O; β3hE = N[C@@H](CCC(=O)O)CC(=O)O; NMeK = CN[C@@H](CCCCN)C(=O)O; Pen = CC(C)(S)[C@H](N)C(=O)O; dNMeK = CN[C@H](CCCCN)C(=O)O Bounds are passed on as bounds.

Sequence of mouse α4β7 integrin on TK1 cells (mouse) (Q00651 41-1039, chain 1 of 2): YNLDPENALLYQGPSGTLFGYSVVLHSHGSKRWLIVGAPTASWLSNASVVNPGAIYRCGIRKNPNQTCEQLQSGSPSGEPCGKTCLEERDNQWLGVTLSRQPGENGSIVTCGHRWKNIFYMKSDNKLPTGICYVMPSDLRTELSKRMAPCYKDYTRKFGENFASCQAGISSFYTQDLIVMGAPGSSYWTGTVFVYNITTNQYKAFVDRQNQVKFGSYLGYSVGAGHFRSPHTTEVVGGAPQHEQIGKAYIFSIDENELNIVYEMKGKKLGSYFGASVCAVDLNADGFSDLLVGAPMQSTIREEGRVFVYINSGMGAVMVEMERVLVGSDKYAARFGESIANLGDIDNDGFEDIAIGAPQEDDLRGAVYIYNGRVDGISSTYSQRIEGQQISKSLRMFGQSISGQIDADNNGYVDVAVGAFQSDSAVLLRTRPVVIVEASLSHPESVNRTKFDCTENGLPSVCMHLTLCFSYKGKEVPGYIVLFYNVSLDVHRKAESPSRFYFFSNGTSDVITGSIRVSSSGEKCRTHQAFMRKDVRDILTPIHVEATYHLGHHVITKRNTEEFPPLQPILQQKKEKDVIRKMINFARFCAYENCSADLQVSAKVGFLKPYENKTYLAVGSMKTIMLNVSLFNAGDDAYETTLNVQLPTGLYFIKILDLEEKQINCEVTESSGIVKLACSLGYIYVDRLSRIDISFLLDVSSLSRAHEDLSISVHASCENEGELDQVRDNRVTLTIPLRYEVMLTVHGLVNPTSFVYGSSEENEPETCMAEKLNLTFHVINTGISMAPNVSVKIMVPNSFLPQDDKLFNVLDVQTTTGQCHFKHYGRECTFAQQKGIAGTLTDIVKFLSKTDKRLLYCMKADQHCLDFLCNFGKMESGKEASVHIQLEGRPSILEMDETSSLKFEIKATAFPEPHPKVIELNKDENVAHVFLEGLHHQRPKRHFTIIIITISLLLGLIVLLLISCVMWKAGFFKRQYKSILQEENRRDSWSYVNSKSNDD
Sequence of mouse α4β7 integrin on TK1 cells (mouse) (P26011 20-806, chain 2 of 2, further chain): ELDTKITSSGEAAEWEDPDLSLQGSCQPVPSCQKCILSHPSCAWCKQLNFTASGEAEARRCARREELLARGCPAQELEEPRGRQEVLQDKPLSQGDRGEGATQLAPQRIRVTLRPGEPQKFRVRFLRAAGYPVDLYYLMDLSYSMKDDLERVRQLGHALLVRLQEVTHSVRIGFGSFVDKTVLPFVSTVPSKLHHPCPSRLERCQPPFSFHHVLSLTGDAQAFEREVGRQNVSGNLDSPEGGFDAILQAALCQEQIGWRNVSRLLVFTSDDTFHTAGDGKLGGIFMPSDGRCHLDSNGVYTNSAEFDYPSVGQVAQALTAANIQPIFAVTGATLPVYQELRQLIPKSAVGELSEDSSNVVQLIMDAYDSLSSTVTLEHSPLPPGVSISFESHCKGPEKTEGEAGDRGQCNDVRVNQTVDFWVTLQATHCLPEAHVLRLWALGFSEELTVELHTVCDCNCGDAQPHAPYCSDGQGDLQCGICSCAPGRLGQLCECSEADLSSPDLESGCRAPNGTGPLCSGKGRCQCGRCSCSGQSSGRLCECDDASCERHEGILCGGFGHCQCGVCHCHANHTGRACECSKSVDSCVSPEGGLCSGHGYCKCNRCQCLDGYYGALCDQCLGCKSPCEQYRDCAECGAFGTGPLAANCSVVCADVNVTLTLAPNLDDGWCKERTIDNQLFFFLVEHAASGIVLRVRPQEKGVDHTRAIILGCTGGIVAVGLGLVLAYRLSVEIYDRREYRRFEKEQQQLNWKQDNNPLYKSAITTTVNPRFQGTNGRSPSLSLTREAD

B1: Vedolizumab-biotin (antibody, INN chains, looked up, V domains shown)
VH: QVQLVQSGAEVKKPGASVKVSCKGSGYTFTSYWMHWVRQAPGQRLEWIGEIDPSESNTNYNQKFKGRVTLTVDISASTAYMELSSLRSEDTAVYYCARGGYDGWDYAIDYWGQGTLVTVSS
VL: DVVMTQSPLSLPVTPGEPASISCRSSQSLAKSYGNTYLSWYLQKPGQSPQLLIYGISNRFSGVPDRFSGSGSGTDFTLKISRVEAEDVGVYYCLQGTHQPYTFGQGTKVEIKR
modifications: biotin label
B1: the Percent positive staining in [1] worked out at 86%; in test [2], 0.45%; in test [3], 55%; in [4], 91%; in [5], 53%; in test [6] it was 42%. Further, the Percent positive staining was found to be 85% in test [7], 7% in [8], 22% in [10] and 36% in test [11]. Further, the Half-life for dissociation in test [9] is 0.717 h. The equilibrium dissociation constant (Kd) in test [9] was found to be 59.5 nM. The molecule further returned a koff in test [9] of 0.000266 s⁻¹. In test [9], the kon was found to be 4470 M⁻¹ s⁻¹.

B2: SEQ ID NO: 142 (peptide)
peptide: Ac-[Pen][NMeR]SDTL[Pen][1Nal][β3hE][NMeK]-NH2
modifications: disulfide 1-7 (inferred); also: dimer via DIG linker
Take B2: the half-maximal inhibitory concentration (IC50) in [12] was > 500 nM; in test [13], < 10 nM; in test [14], > 50 nM; in [15], < 10 nM.

B3: SEQ ID NO: 44 (peptide)
peptide: Ac-[Pen][NMeR]SDTL[Pen][1Nal]E[dNMeK]-NH2
modifications: disulfide 1-7; also: dimer via DIG
In the case of B3, the IC50 was > 100 nM in test [12], < 10 nM in [16], < 10 nM in test [13] and < 10 nM in test [15].

B4: Peptide 212 (peptide)
peptide: Ac-[Pen][NMeR]SDTL[Pen][2Nal]E[dK]-NH2
modifications: disulfide 1-7; also: dimer via DIG, attachment site not given here
Consider B4, for which the IC50 came to 70 nM in test [12], 2.5 nM in test [16], 2 nM in test [13] and 2.5 nM in test [15].

B5: Peptide X-biotin (peptide)
peptide: Ac-[Pen][NMeR]SDTL[Pen][Phe(4-tBu)][β3hE][dK]
modifications: disulfide 1-7 (inferred); also: biotin attached via PEG linker, site not given here, dimer of two subunits joined by DIG linker, as Peptide X
B5: the half-life for dissociation in test [17] was 11.1 h and ~11 h.

B6: SEQ ID NO: 47 (peptide)
chain: Ac-[Pen][NMeR]S[Prop acid]TL[Pen]WE[dK]-NH2
modifications: disulfide 1-7
B6: the half-maximal inhibitory concentration (IC50) in test [18] was > 1000 nM.

B7: Peptide 210 (peptide)
peptide: Ac-[Pen][NMeR]SDTL[Pen][2Nal]E[dK]-NH2
modifications: disulfide 1-7
SMILES: CC(=O)N[C@@H]1C(=O)N(C)[C@@H](CCCNC(=N)N)C(=O)N[C@@H](CO)C(=O)N[C@@H](CC(=O)O)C(=O)N[C@@H]([C@@H](C)O)C(=O)N[C@@H](CC(C)C)C(=O)N[C@H](C(=O)N[C@@H](Cc2ccc3ccccc3c2)C(=O)N[C@@H](CCC(=O)O)C(=O)N[C@H](CCCCN)C(N)=O)C(C)(C)SSC1(C)C
In the case of B7, the IC50 in test [12] came to 200 nM; in test [16] it was 60 nM; in test [13], 11 nM; in [14], 517 nM; in [15] it was 40 nM.

These data come from patent publication US20180148477A1 (published 2018).
